These results are taken from patent US20030088057A1, “PEPTIDE SUBSTRATES PHOSPHORYLATED BY P21-ACTIVAGED PROTEIN KINASE STATEMENT REGARDING FEDERALLY SPONSORED REASEARCH OR DEVELOPMENT” (priority 1998, published 2003).

The assay concerns γ-PAK. As to the kind of experiment: Phosphorylation of protein substrates by γ-PAK. In kind it is biochemical, rabbit. To be noted: for 32P incorporated: 2 μg protein substrate, 20 units active γ-PAK, 15 min at 30° C.; for rel rate: relative to histone 2B = 100. The method, then: D. Phosphorylation Assays. Phosphorylation of protein substrates was carried out in 35 μL reaction mixtures containing 20 mM Tris-HCl, pH 7.4, 10 mM MgCl2, 30 mM 2-mercaptoethanol, 0.2 mM ATP (specific activity =1000 cpm/pmol), 2 μg of protein substrate, and 20 units of active γ-PAK (an enzyme unit is defined as the amount of enzyme that incorporates 1 pmol of phosphate into histone IIAS/ min at 30°. Under these conditions, phosphate incorporation was linear and initial rates of phosphorylation were measured. After incubation at 30° C. for 15 min, reactions were terminated by the addition of 5 μL of 100 mM nonlabeled ATP and sample buffer for gel electrophoresis [Hathaway, G. M., et al., Methods Enzymol., 60:495-511 (1979)]. Reaction mixtures were subjected to SDS-PAGE on 15% polyacrylamide gels followed by autoradiography. Phosphorylation was quantified by excising the protein band and counting the incorporated ^32P in a liquid scintillation counter. The specific activity of γ-PAK was 400 pmol min^−1 μg^−1 as reported previously using 0.2 mM ATP and 1 mg/mL mixed histone as substrate [Rooney, R. D., et al., (1996), supra].
A number of proteins were examined as substrates, and their relative rates of phosphorylation were compared (Table 6).

γ-PAK, sequence (Q29502 249-524 limits assumed): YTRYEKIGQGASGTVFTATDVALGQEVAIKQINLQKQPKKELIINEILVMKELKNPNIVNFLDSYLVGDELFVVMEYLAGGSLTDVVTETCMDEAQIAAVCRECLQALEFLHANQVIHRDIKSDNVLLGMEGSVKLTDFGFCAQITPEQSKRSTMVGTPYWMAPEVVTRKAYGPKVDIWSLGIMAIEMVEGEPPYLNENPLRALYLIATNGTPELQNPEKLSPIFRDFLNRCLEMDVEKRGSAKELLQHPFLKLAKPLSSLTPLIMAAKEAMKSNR

B1: myelin basic protein: bovine myelin basic protein, purchased from Sigma (protein)
chain: AAQKRPSQRSKYLASASTMDHARHGFLPRHRDTGILDSLGRFFGSDRGAPKRGSGKDGHHAARTTHYGSLPQKAQGHRPQDENPVVHFFKNIVTPRTPPPSQGKGRGLSLSRFSWGAEGQKPGFGYGGRASDYKSAHKGLKGHDAQGTLSKIFKLGGRDSRSGSPMARR
Regarding B1, the 32P incorporated is listed as 4.2 pmol and the rel rate is reported as 37%.

B2: prolactin: rat prolactin (protein)
chain: LPVCSGGDCQTPLPELFDRVVMLSHYIHTLYTDMFIEFDKQYVQDREFIAKAINDCPTSSLATPEDKEQAQKVPPEVLLNLILSLVHSWNDPLFQLITGLGGIHEAPDAIISRAKEIEEQNKRLLEGIEKIISQAYPEAKGNEIYLVWSQLPSLQGVDEESKDLAFYNNIRCLRRDSHKVDNYLKFLRCQIVHKNNC
Consider B2, for which the 32P incorporated worked out at 1.8 pmol and the rel rate came to 17%.
